Measured values published in publication PMC2270906, “The CD81 Partner EWI-2wint Inhibits Hepatitis C Virus Entry” (PLoS ONE, 2008).

B1: CD81 (endogenous, human cells) (natural protein)
chain: MGVEGCTKCIKYLLFVFNFVFWLAGGVILGVALWLRHDPQTTNLLYLELGDKPAPNTFYVGIYILIAVGAVMMFVGFLGCYGAIQESQCLLGTFFTCLVILFACEVAAGIWGFVNKDQIAKDVKQFYDQALQQAVVDDDANNAKAVVKTFHETLDCCGSSTLTALTTSVLKNNLCPSGSNIISNLFKEDCHQKIDDLFSGKLYLIGIAAIVVAVIMIFEMILSMVLCCGIRNSSVY
B2: EWI-2wint with the C-terminal FLAG epitope, produced by furin cleavage of EWI-2FLAG^fur in Huh-7 cells (domain or fragment)
chain: QAPTSPPRMTVHEGQELALGCLARTSTQKHTHLAVSFGRSVPEAPVGRSTLQEVVGIRSDLAVEAGAPYAERLAAGELRLGKEGTDRYRMVVGGAQAGDAGTYHCTAAEWIQDPDGSWAQIAEKRAVLAHVDVQTLSSQLAVTVGPGERRIGPGEPLELLCNVSGALPPAGRHAAYSVGWEMAPAGAPGPGRLVAQLDTEGVGSLGPGYEGRHIAMEKVASRTYRLRLEAARPGDAGTYRCLAKAYVRGSGTRLREAASARSRPLPVHVREEGVVLEAVAWLAGGTVYRGETASLLCNISVRGGPPGLRLAASWWVERPEDGELSSVPAQLVGGVGQDGVAELGVRPGGGPVSVELVGPRSHRLRLHSLGPEDEGVYHCAPSAWVQHADYSWYQAGSARSGPVTVYPYMHALDTLFVPLLVGTGVALVTGATVLGTITCCFMKRLRKR

Columns and labels:
[1] = molecular target: HCV E1E2 heterodimers (expressed from recombinant adenovirus Ad/E1E2p7NS2) (hepatitis C virus); assay: pull-down; E1E2 on mAb H53 beads; Huh-7/EWI-2FLAG^fur cells lysed in Bj/EDTA, ratio of the CD81 band to that in TX/EDTA
[2] = molecular target: HCV E1E2 heterodimers (expressed from recombinant adenovirus Ad/E1E2p7NS2) (hepatitis C virus); assay: pull-down; E1E2 on mAb H53 beads; Huh-7/pcDNA3.1 cells lysed in Bj/EDTA, ratio of the CD81 band to that in TX/EDTA
[3] = molecular target: T1, CD81 (endogenous, human cells) (human (endogenous in Daudi, Ramos, …, UniProt P60033 1-236)); assay: cell-based or functional assay
T1 sequence: B1 chain

Row | Binder | ratio [CD81 band intensity in E1E2 IP in Bj/EDTA buffer]/[CD81 band intensity in E1E2 IP in TX/EDTA buffer] [1] | ratio [CD81 band intensity in E1E2 IP in Bj/EDTA buffer]/[CD81 band intensity in E1E2 IP in TX/EDTA buffer] [2] | inhibition of the infectivity of HCVcc expressing Renilla luciferase on Huh-7 cells expressing EWI-2FLAG^fur (clone A6), relative to Huh-7 cells; the pair that is blocked: HCV glycoproteins with CD81 [3]
1 | B1 | 0.27 | 0.84 | –
2 | B2 | – | – | 80%
